Experimental data published in patent US8278037B2, “N-acetylgalactosamine transferases and nucleic acids encoding the same” (National Institute of Advanced Industrial Science and …, priority 2002, dated 2012).

Key:
[1] = system: asialo/agalacto-fetal calf fetuin; assay: LacdiNAc synthesizing activity toward asialo/agalacto-fetal calf fetuin, WFA lectin blot; format: biochemical; conditions: 37° C. for 16 hr, HRP conjugated WFA lectin detection
Protocol: Fetal calf fetuin (FCF), neuraminidase, β1-4 galactosidase and glycopeptidase F were purchased from Sigma, Nacalai Tesque (Kyoto, Japan), Calbiochem and Takara, respectively. Asialo/agalacto-FCF was prepared from 200 μg of FCF by incubating with 4 μU of neuraminidase and 12 μU of β1,4-galactosidase at 37° C. for 16 hr. The transfer of GalNAc by GalNAc-T2 to glycoprotein was performed in 20 μl of a standard reaction mixture containing 50 μg of asialo/agalacto-FCF produced by glycosidase treatment. After the incubation at 37° C. for 16 hr, each 5 μl of the reaction mixture was digested with glycopeptidase F (GPF) according to manufacture's instruction. For detection of transferred GalNAc, horseradish peroxidase (HRP) conjugated lectin, Wisteria floribunda agglutinin (WFA) (EY Laboratories, San Mateo, Calif.), was used. A 1 μl of reaction mixtures subjected to 12.5% SDS-PAGE were transferred to nitrocellulose membrane (Schleicher & Schuell, Keene, N.H.) and stained with 0.1% HRP conjugated WFA lectin. The signals were detected using enhanced chemiluminescence (ECL) and Hyperfilm ECL (Amersham Biosciences).

[2] = molecular target: T1, NGalNAc-T1 (Homo sapiens, UniProt Q76KP1); assay: Study of optimum pH in enzymatic activity; format: biochemical; conditions: for (A) − (B): blank 263.21 subtracted
T1 sequence (Q76KP1 62-1039): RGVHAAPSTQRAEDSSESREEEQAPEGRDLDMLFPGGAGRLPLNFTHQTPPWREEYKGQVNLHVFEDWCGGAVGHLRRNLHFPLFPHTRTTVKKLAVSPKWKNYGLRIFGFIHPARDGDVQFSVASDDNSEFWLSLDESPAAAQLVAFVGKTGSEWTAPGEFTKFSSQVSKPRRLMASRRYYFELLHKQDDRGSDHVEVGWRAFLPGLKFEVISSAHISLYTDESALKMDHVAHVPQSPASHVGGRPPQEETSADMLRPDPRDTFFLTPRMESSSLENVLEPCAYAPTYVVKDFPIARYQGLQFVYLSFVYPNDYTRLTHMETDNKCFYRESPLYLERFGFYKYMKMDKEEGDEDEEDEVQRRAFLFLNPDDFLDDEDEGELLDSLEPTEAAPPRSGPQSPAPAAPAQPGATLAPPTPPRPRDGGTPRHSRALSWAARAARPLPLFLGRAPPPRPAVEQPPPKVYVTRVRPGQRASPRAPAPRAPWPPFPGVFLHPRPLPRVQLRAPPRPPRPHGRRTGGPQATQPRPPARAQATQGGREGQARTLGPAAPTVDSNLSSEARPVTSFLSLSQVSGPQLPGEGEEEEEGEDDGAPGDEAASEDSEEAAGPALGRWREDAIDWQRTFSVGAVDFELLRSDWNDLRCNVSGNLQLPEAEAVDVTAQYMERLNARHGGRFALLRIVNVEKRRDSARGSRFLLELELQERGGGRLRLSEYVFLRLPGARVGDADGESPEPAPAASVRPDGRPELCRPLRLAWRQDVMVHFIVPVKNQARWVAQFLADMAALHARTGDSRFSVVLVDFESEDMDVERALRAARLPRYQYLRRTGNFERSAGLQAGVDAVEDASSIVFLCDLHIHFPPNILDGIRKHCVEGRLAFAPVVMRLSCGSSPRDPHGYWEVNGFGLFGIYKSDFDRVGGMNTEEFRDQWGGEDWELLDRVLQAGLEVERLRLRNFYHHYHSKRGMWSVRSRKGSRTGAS
Source text: As described above, it was explained that NGalNAc-T1 and NGalNAc-T2 are glycosyl transferases which transfer GalNAc to GlcNAc. Thereat, the optimum pH of both enzymes was studied. The buffer solutions used are MES (pH 5.5, 6.0, 6.26, 6.5, 6.75), HEPES (pH 6.75, 7.0, 7.4).
In addition, the value (263.21 dpm) of MES (pH 6.75) was adopted as a blank value in the case of a non-enzyme. Further, when pH of HEPES buffer was 7.4 for NGalNAc-T1 and 6.75 for NGalNAc-T2, the highest value was shown. […] Hereinafter, MES (pH 6.5) was used in each of experiments.

[3] = system: glycodelin in CHO cells; assay: N-glycan structures on glycodelin from NGalNAc-T gene transfected CHO cells, WFA lectin blotting; format: cell-based; conditions: gene co-transfected with glycodelin gene in CHO cells, 48 hr culture medium
Source text: As shown above, both NGalNAc-T1 and -T2 could synthesize LacdiNAc structures on mono- and oligosaccharide acceptors. Actually, it is known that the LacdiNAc structures exist in N-glycans on some glycoproteins. Therefore we examined the ability of NGalNAc-T1 to construct LacdiNAc on glycodelin, which is one of major glycoproteins carrying LacdiNAc structures, in vivo. CHO cells were employed for this purpose, because glycodelin produced in CHO cells is devoid of any of the LacdiNAc-based chains.
The glycodelin expression vector was transfected into CHO cells expressing NGalNAc-T1 or -T2 gene and the culture medium was collected from 48 hr-culture medium. Glycodelin was harvested with WFA affinity column from the culture medium. The harvested glycodelin was applied to SDS-PAGE and used for lectin blotting with WFA.

B1: NGalNAc-T1: human enzyme (SEQ ID NO: 1) transferring N-acetylgalactosamine to N-acetylglucosamine via β1-4 linkage; tested as FLAG-tagged amino acids 62-1039 (protein, listed as Homo sapiens)
chain: RGVHAAPSTQRAEDSSESREEEQAPEGRDLDMLFPGGAGRLPLNFTHQTPPWREEYKGQVNLHVFEDWCGGAVGHLRRNLHFPLFPHTRTTVKKLAVSPKWKNYGLRIFGFIHPARDGDVQFSVASDDNSEFWLSLDESPAAAQLVAFVGKTGSEWTAPGEFTKFSSQVSKPRRLMASRRYYFELLHKQDDRGSDHVEVGWRAFLPGLKFEVISSAHISLYTDESALKMDHVAHVPQSPASHVGGRPPQEETSADMLRPDPRDTFFLTPRMESSSLENVLEPCAYAPTYVVKDFPIARYQGLQFVYLSFVYPNDYTRLTHMETDNKCFYRESPLYLERFGFYKYMKMDKEEGDEDEEDEVQRRAFLFLNPDDFLDDEDEGELLDSLEPTEAAPPRSGPQSPAPAAPAQPGATLAPPTPPRPRDGGTPRHSRALSWAARAARPLPLFLGRAPPPRPAVEQPPPKVYVTRVRPGQRASPRAPAPRAPWPPFPGVFLHPRPLPRVQLRAPPRPPRPHGRRTGGPQATQPRPPARAQATQGGREGQARTLGPAAPTVDSNLSSEARPVTSFLSLSQVSGPQLPGEGEEEEEGEDDGAPGDEAASEDSEEAAGPALGRWREDAIDWQRTFSVGAVDFELLRSDWNDLRCNVSGNLQLPEAEAVDVTAQYMERLNARHGGRFALLRIVNVEKRRDSARGSRFLLELELQERGGGRLRLSEYVFLRLPGARVGDADGESPEPAPAASVRPDGRPELCRPLRLAWRQDVMVHFIVPVKNQARWVAQFLADMAALHARTGDSRFSVVLVDFESEDMDVERALRAARLPRYQYLRRTGNFERSAGLQAGVDAVEDASSIVFLCDLHIHFPPNILDGIRKHCVEGRLAFAPVVMRLSCGSSPRDPHGYWEVNGFGLFGIYKSDFDRVGGMNTEEFRDQWGGEDWELLDRVLQAGLEVERLRLRNFYHHYHSKRGMWSVRSRKGSRTGAS
modifications: FLAG tag
With B1 the “transfer of GalNAc to glycoprotein asialo/agalacto-FCF” value [1] was “same as NGalNAc-T2”, the “pH at which the highest value was shown” value ([2]; HEPES buffer) was 7.4 and the “Incorporation of radioactivity (A)” value ([2]; HEPES buffer (pH 6.75)) was 1685.06 dpm. For the same molecule, the “(A) − (B)” value ([2]; HEPES buffer (pH 6.75)) was 1421.85 dpm, the “Incorporation of radioactivity (A)” value ([2]; HEPES buffer (pH 7.0)) was 1138.38 dpm and the “(A) − (B)” value ([2]; HEPES buffer (pH 7.0)) was 875.17 dpm. For the same molecule, the “Incorporation of radioactivity (A)” value ([2]; HEPES buffer (pH 7.4)) was 2587.48 dpm, the “(A) − (B)” value ([2]; HEPES buffer (pH 7.4)) was 2324.27 dpm and the “pH at which the activity tends to be higher” value ([2]; MES buffer) was 6.5. For the same molecule, the “Incorporation of radioactivity (A)” value ([2]; MES buffer (pH 5.5)) was 339.76 dpm, the “(A) − (B)” value ([2]; MES buffer (pH 5.5)) was 76.55 dpm and the “Incorporation of radioactivity (A)” value ([2]; MES buffer (pH 6.0)) was 321.04 dpm. For the same molecule, the “(A) − (B)” value ([2]; MES buffer (pH 6.0)) was 57.83 dpm, the “Incorporation of radioactivity (A)” value ([2]; MES buffer (pH 6.26)) was 636.34 dpm and the “(A) − (B)” value ([2]; MES buffer (pH 6.26)) was 373.13 dpm. The “Incorporation of radioactivity (A)” value ([2]; MES buffer (pH 6.5)) was 1767.72 dpm, the “(A) − (B)” value ([2]; MES buffer (pH 6.5)) was 1504.51 dpm and the “Incorporation of radioactivity (A)” value ([2]; MES buffer (pH 6.75)) was 923.92 dpm. For the same molecule, the “(A) − (B)” value ([2]; MES buffer (pH 6.75)) was 660.71 dpm and the “non-reducing terminal GalNAc on glycodelin” value [3] was “non-reducing terminal GalNAc is detected”.
